Publication doi:10.1101/2021.12.30.474520
Like-named read-outs stand apart in the source and are kept apart here.

Assays:
[1] = biological target: human SETD3 (residues 1-497) (human) (UniProt Q86TU7); experiment: ITC
[2] = biological target: human SETD3 (residues 1-497) (human) (UniProt Q86TU7); experiment: ITC; remark: listed apart in the source

Substance | Kd [1] | Kd [2]
β-actin peptide, residues 66-81, with 3-pyridylalanine at position 73 (βA-3PyrAla73) (from UniProt P60709 66-81) | 48.5 µM | 44.4 µM
β-actin peptide, residues 66-81, with 4-pyridylalanine at position 73 (βA-4PyrAla73) (from UniProt P60709 66-81) | 4.9 µM | 3.1 µM
β-actin peptide, residues 66-81, with ornithine at position 73 (βA-Orn73) (from UniProt P60709 66-81) | 39.2 µM | 7.2 µM
β-actin peptide, residues 66-81, with β-triazolylalanine at position 73 (βA-βTriaA73) (from UniProt P60709 66-81) | 4 µM | 0.8 µM
